Source: patent US20210253725A1 (BIONTECH, published 2021)
Positions count from the first letter of the chain named. In names and notes the source's numbering stands.

B1: P018.S.12.A.C02 (antibody, V domains shown)
VH: QEQLVESGGGLVQPEGSLTLTCTASGFSFSNNAMCWVRQAPGKGLEWIACIYDGSSGSTYYATWAKGRFTISKTSSTTVTLQMTSLTAADTATYFCARAYGGYTVYDYAFNLWGPGTLVTVSS
VL: DVVMTQTPASVSEPVGGTVTIKCQASQSIGSDLAWYQQKPGQPPKLLIYYTTNLETGVSSRFKGSRSGTEYALTISDLESADAATYYCQYGVRSTYSFGGGTEVVVK
notes: V regions on human Ig constant parts; also called AB134_62
B2: P018.S.12.A.H05 (antibody, V domains shown)
VH: QSLEESGGDLVKPGASLTLTCTASGFSFDIDYYMCWVRQAPGKGLEWIACIYAGSSGSTYYASWAKGRFTISKTSSTTVTLQMPSLTAADTATYFCARHYAGYAGDAYATDYYFNLWGRGTLVTVSS
VL: DIVMTQTPSSVSATVGDTVTINCQASQSVSNFLAWYQQKPGQPPKPLIYGASNLESGVPSRFRGSGSGTEFTLTISGMKAEDAATYYCQSGYYSATFGAGTKVEIK
notes: V regions on human Ig constant parts; also called AB134_91
B3: P018.S.02.A.F01 (antibody, V domains shown)
VH: QSVEESGGRLVTPGTPLTLTCTVSGFSLSSYAMSWVRQAPGKGLEWIGIISSSGVTYYASWAKGRFTISKTSTTVDLRITGPTTEDTATYFCARDPGYSTGWDYFFRLWGQGTLVTVSS
VL: AIKMTQTPASVSAAVGGTVSINCQASEDIESYLAWYQQKPGQPPKLLIYDASDLPSGVPSRFKGSGSGKQFTLTISGVQSDDAATYYCQHGAYTSSSDFFYAFGGGTEVVVK
notes: V regions on human Ig constant parts; also called AB134_1
B4: P018.S.12.A.B01 (antibody, V domains shown)
VH: QEQLVESGGGLVQPEGSLTLTCKASGFDFSYNSMCWVRQAPGKGLEWITCIYNGDGSTWYASWAKGRFTISKTSSTTVTLQMTSLTAADTATYFCTRDFGLWGPGTLVTVSS
VL: ALVMTQTPSSTSEPVGGTVTINCQASESVANHKQLSWYQQKPGQPPKVLIYYASTLASGVPSRFKGSGSGTQFTLTISDVVSDDAATYYCSGYKSISTDGNAFGGGTEVVVK
notes: V regions on human Ig constant parts; also called AB134_56
B5: P018.S.11.A.B06 (antibody, V domains shown)
VH: QSVEESGGRLVTPGTPLTLTCTASGFSLINYNMGWVRQAPGEGLEWIGTILTDGTVYYSNWAKGQFTISKTSTTVDLEMTSPTNEDTATYFCARDYPSYIAFDLWGPGTLVTVSS
VL: AQVLTQTASSVSAAVGGTVTINCQASQSVYNDDNLAWLQQKPGQPPKLLIYGASSLASGVPSRFSGSGSGTEFTLTISGVQSEDAAIYYCQGGGFSSGWYWAFGGGTEVVVK
notes: V regions on human Ig constant parts; also called AB134_27
B6: P018.S.04.A.B04 (antibody, V domains shown)
VH: QSLEESGGRLVTPGTPLTLTCTASGIDLNNYAMSWVRQAPGKGLEWIGIISGAGYTYYTTWAKGRFTISKTSTTVDLKITSPTTEDTATYFCARIYDSYGYAYVPYYDMDLWGPGTLVTVSS
VL: AAVLTQTPSPVSTAVGGTVTINCQSSQSVFMNNYLSWYQQKPGQPPKLLIYDASTLASRVPDRFSGSGSGTQFTLTISGVQSDDAAAYYCLGGYDDDSATTFGGGTEVVVE
notes: V regions on human Ig constant parts; also called AB134_6
B7: P018.S.12.A.C03 (antibody, V domains shown)
VH: QEQLKESGGDLVTPGTPLTLTCTVSGFSLSSYAMAWVRQAPGKGLEYIGFIDTDGSAYYASWAKGRFTISRTSTTVDLKITSPTTEDTATYFCAGDSYGYAGFVYFNLWGPGTLVTVSS
VL: DVVMTQTPASVSEPVGGTVTIKCQASQNIYSSLAWYQQKPGQPPKLLIYDASDLASGVPSRFKGSGSGTQFTLTISDLESDDAATYYCQCSYYGVDYVGGFGGGTEVVVK
notes: V regions on human Ig constant parts; also called AB134_63
B8: P018.S.11.A.F05 (antibody, V domains shown)
VH: QSLEESGGRLVTPGTPLTLTCTVSGFSLSRYHMSWVRQAPGKGLEYIGYIHTDDTNWYASWAKGRFTISKTSTTVDLKITSPTTEDTATYFCARVSSVGGYYFDLWGQGTLVTVSS
VL: DVVMTQTPASVSEPVGGTVTIKCQASEDIYNLLAWYQQKPGQPPKLLIYAASTLASGVPSRFKGSGSGTQFTLTISDLESADAATYYCQNNYLISSYGVGFGGGTEVVVK
notes: V regions on human Ig constant parts; also called AB134_41
B9: P018.S.11.A.D04 (antibody, V domains shown)
VH: QSVEESGGRLVTPGTPLTLTCTVSGFSLNSYDMSWVRQAPGKGLEWIGFISASGSIYFASWAKGRFTISKTSTTVDLKITSPTTEDTATYFCASDSYGWAYVYYFNLWGPGTLVTVSS
VL: AVVLTQTPASVSPAVGGTVTINCRASEDIGSYLGWYQQKPGQPPKLLMHDASDLASGVPSRFSGSGSGTEFTLTISGVQSDDAATYYCQSAWYSSNTDKMAFGGGTEVVVK
notes: V regions on human Ig constant parts; also called AB134_31
B10: P018.S.12.A.G04 (antibody, V domains shown)
VH: B9 VH with S53I, G54D, S55N, I56T, F58Y
VL: B9 VL with P13A, A14T, M48I, N96D, T97S
notes: V regions on human Ig constant parts; also called AB134_86
B11: P018.S.12.A.G03 (antibody, V domains shown)
VH: QSLEESGGRLVTPGGSLTLTCTLSGIDLSSNAISWVRQAPGKGLEWIGIIFPGDNIYYATWAKGRFTISKTSTTVDLKMTSLRTADTATYFCARYHADDSVDLWGPGTLVTVSS
VL: AYDMTQTPASVSEPVGGTVTIKCQASQSINGWLSWYQQKPGQRPRLLIYRASDLAPGVSSRFKGSGSGTQFTLTISDVESADAATYYCHLGDIYSNIDYVFGGGTEVVVK
notes: V regions on human Ig constant parts; also called AB134_85
B12: P018.S.12.A.E05 (antibody, V domains shown)
VH: QSVEESGGRLVTPGGSLTLTCTASGFDLSSYATSWVRQAPGKGLEWIGIIYGSGSTTYASWVKGQFTISKSSSTTVDLKMTSLTTEDTATYFCARGLVASTDNYNLWGPGTLVTVSS
VL: AAVLTQTPSPVSVAVGGTVTINCQASQSVYNNNYLAWFQQKPGQPPKLLIYLASILASGVPSRFKGSGSGTQFTLTINGVQSDDAATYYCLGDVGGGERVFGGGTEVVVK
notes: V regions on human Ig constant parts; also called AB134_76
B13: P018.S.12.A.A01 (antibody, V domains shown)
VH: QSVEESGGRLVTPGTPLTLTCTVSGFSLSSYAMIWVRQAPGKGLEYIGYISYDGSTYYASWVKGRFTISKTSTTVDLKMTSLTTEDTATYFCARARIDDGYGNLWGQGTLVTVSS
VL: DVVMTQTPASVSEPVGGTVTIKCQASESISNYLAWYQQKPGQPPKLLIYAASYLASGVPSRFRGSGSGTEFTLTISDLESADAATYYCQCTYVASTYVGTFGGGTEVVVK
notes: V regions on human Ig constant parts; also called AB134_50
B14: P018.S.11.A.B03 (antibody, V domains shown)
VH: QSLEESGGRLVTPGTPLTLTCTVSGFSLSNYAMSWVRQAPGKGLEWIAIISGSGSTNYASWAKGRFTLSKASTTVALKITSPTTEDTATYFCGRGRDDDYAWDLWGQGTLVTVSS
VL: DVVMTQTPASVSEPVGGTVTIKCQASQTISNYLAWYQQKPGQPPKLLIYAASTLASGVSSRFRGSGSGTEFSLTISDLESADAATYYCHCTYYDSSYHGFGGGTEVVVK
notes: V regions on human Ig constant parts; also called AB134_24
B15: P018.S.12.A.C06 (antibody, V domains shown)
VH: QSVEESGGRLVKPDETLTLICTVSGIDLSINVVGWVRQAPGEGLEWIGDISSHGDTIYATWAKGRFTISKTSTTVDLKMTSLTASDTATYFCARYVGDGYYDLWGPGTLVTVSS
VL: AYDMTQTPASVSAAVGGTVTINCQASQSISNLLAWYQQKPGQRPKLLIYDTSKLASGVPSRFKGSGSGTQFTLTISDLESADAATYYCQQSYSSSNIANLFGGGTEVVVK
notes: V regions on human Ig constant parts; also called AB134_66
B16: P018.S.11.A.F04 (antibody, V domains shown)
VH: QSVEESGGRLVTPGTPLTLTCTVSGFSLSRYTMGWVRQAPGKGLEYIGIIYGDDNTYYASWAKGRLTISKTSSTTVDLKITSPTTEDTATYFCASCAPIYYNTFSFNLWGQGTLVTVSA
VL: AYDMTQTPASVEVAVGGTVTIKCQASQTIGGSLSWYQQKPGQPPKLLIYAAATLASGVPSRFKGSGSGTQFTLTISGVESDDAATYYCQQHYTGDNVNNPFGGGTEVVVK
notes: V regions on human Ig constant parts; also called AB134_40

biological target: T1, CD134 expressed on the cell surface of HT1080_OX40 cells (human, UniProt P43489 29-277); assay: cell-based or functional assay
T1 sequence (looked up): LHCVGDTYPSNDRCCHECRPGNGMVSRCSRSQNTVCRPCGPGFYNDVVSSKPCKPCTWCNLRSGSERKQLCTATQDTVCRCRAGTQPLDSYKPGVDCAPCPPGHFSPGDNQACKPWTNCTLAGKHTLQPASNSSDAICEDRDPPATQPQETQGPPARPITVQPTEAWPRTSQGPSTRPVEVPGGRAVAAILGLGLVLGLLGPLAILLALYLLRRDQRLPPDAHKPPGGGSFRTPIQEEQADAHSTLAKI
Also: test concentration or dose not given here.

Row | Binder | Functional assay Cross-linked by F(ab′)2 fragment IL-8 [abs. corr.] | Functional assay IL-8 [abs. corr.]
1 | B1 | 2.14 | 0.936
2 | B2 | 2.19 | 0.348
3 | B3 | 2.34 | 0.115
4 | B4 | 2.11 | 0.396
5 | B5 | 2.1 | 0.403
6 | B6 | 2.11 | 1.99
7 | B7 | 2.11 | 0.238
8 | B8 | 2.15 | 0.33
9 | B9 | 2.04 | 0.38
10 | B10 | 1.99 | 0.407
11 | B11 | 2.1 | 0.209
12 | B12 | 2.11 | 0.132
13 | B13 | 2.14 | 0.071
14 | B14 | 2.1 | -0.075
15 | B15 | 2.1 | 0.881
16 | B16 | 2.11 | 0.568

biological target: T2, CD134 protein (His-tagged, Sino Biological Inc. 10481-H08H) (human, UniProt P43489 29-216); assay: ELISA, coated His-tagged CD134
T2 construct: bought protein coated on ELISA plates; also called OX40; TNFRSF4; not shown: His tag
T2 sequence (looked up): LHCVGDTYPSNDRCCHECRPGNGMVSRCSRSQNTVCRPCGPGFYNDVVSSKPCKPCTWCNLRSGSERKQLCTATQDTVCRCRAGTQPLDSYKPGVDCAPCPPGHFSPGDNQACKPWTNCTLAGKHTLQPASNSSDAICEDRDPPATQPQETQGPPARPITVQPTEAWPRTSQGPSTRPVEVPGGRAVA

Row | Binder | ELISA [abs. corr.]
17 | B1 | 2.05
18 | B2 | 2.37
19 | B3 | 2.69
20 | B4 | 2.34
21 | B5 | 2.13
22 | B6 | 3.21
23 | B7 | 1.96
24 | B8 | 1.67
25 | B9 | 2.07
26 | B10 | 2.08
27 | B11 | 2.52
28 | B12 | 1.93
29 | B13 | 2.41
30 | B14 | 2.66
31 | B15 | 2.35
32 | B16 | 2.25

biological target: T1, CD134 expressed on the cell surface of …; assay: HT1080_OX40 cells, imaging

Row | Binder | Cellular binding assay [RFU]
33 | B1 | 571
34 | B2 | 527
35 | B3 | 498
36 | B4 | 607
37 | B5 | 441
38 | B6 | 331
39 | B7 | 483
40 | B8 | 396
41 | B9 | 530
42 | B10 | 534
43 | B11 | 452
44 | B12 | 523
45 | B13 | 600
46 | B14 | 527
47 | B15 | 525
48 | B16 | 486
